Biological target: N-terminus His-tag cleaved rBPSL1038 (rBPSL1038-post-cleavage) (Burkholderia pseudomallei) (UniProt Q63W52)
Experiment: SEC

“N-terminus His-tag cleaved rBPSL1038 (rBPSL1038-post-cleavage) (from UniProt Q63W52 1-88) (natural protein)” showed a stoichiometry N of 2.
